Measured values: article PMC9882641

What was measured:
Experiment in all cases: enzyme inhibition assay (chromogenic substrate, fit to Morrison's tight binding equation); MMP-2ACT (0.6 nM), MMP-9CAT (3 nM) or MMP-14CAT (1 nM) incubated with 0-25 nM N-TIMP2 variant for 1 h at 37 C in 50 mM HEPES, 10 mM CaCl2, 0.05% Brij-35, 1 mM DTNB, pH 7.5; then 100 uM chromogenic substrate, absorbance at 412 nm; three independent experiments
[1] = target: human MMP-9 catalytic domain (MMP-9CAT) (human) (UniProt P14780)
[2] = target: activated MMP-2 (MMP-2ACT) (human) (UniProt P08253)
[3] = target: human MMP-14 catalytic domain (MMP-14CAT) (human) (UniProt P50281)

| Substance | Ki [1] | Ki [2] | Ki [3] |
| --- | --- | --- | --- |
| N-TIMP2-A70DOPA (from UniProt P16035 27-153) (domain or fragment) | 0.452 nM | 0.785 nM | 10.6 nM |
| N-TIMP2-A70HqAla (from UniProt P16035 27-153) (domain or fragment) | 1.93 nM | 16.7 nM | 27.2 nM |
| N-TIMP2-L100DOPA (from UniProt P16035 27-153) (domain or fragment) | 0.849 nM | 1 nM | 14.2 nM |
| N-TIMP2-S2DOPA (from UniProt P16035 27-153) (domain or fragment) | 0.623 nM | 3.14 nM | 14.6 nM |
| N-TIMP2-S2HqAla (from UniProt P16035 27-153) (domain or fragment) | 70.4 nM | 97.7 nM | 97.7 nM |
| N-TIMP2-S69DOPA (from UniProt P16035 27-153) (domain or fragment) | 0.468 nM | 0.46 nM | 21.4 nM |
| N-TIMP2-S69HqAla (from UniProt P16035 27-153) (domain or fragment) | 0.449 nM | 0.606 nM | 11.5 nM |
| N-TIMP2-Y36HqAla (from UniProt P16035 27-153) (domain or fragment) | 0.543 nM | 0.413 nM | 4.72 nM |
